Experiments:
SpyCas9 = SpyCas9 (Streptococcus pyogenes, UniProt Q99ZW2 1-1368); experiment: EMSA; 10 mM Mg2+; EMSA: 1x NEBuffer 3.1 (100 mM NaCl, 50 mM Tris-HCl, 10 mM MgCl2, 100 ug/ml BSA, pH 7.9 at 25 C), 50 pM sgRNA, 40 min at 22 C, 6% native TBE gel in cold room; details: protein: recombinant; label: 5'-32P; single guide RNA, GAAA tetraloop, three 3' stem-loops
SauCas9 = molecular target: T1, SauCas9 (Staphylococcus aureus, UniProt J7RUA5 1-1053); experiment: as above; details: protein: recombinant; label: 5'-32P; single guide RNA, GAAA tetraloop, two 3' stem-loops
T1 sequence: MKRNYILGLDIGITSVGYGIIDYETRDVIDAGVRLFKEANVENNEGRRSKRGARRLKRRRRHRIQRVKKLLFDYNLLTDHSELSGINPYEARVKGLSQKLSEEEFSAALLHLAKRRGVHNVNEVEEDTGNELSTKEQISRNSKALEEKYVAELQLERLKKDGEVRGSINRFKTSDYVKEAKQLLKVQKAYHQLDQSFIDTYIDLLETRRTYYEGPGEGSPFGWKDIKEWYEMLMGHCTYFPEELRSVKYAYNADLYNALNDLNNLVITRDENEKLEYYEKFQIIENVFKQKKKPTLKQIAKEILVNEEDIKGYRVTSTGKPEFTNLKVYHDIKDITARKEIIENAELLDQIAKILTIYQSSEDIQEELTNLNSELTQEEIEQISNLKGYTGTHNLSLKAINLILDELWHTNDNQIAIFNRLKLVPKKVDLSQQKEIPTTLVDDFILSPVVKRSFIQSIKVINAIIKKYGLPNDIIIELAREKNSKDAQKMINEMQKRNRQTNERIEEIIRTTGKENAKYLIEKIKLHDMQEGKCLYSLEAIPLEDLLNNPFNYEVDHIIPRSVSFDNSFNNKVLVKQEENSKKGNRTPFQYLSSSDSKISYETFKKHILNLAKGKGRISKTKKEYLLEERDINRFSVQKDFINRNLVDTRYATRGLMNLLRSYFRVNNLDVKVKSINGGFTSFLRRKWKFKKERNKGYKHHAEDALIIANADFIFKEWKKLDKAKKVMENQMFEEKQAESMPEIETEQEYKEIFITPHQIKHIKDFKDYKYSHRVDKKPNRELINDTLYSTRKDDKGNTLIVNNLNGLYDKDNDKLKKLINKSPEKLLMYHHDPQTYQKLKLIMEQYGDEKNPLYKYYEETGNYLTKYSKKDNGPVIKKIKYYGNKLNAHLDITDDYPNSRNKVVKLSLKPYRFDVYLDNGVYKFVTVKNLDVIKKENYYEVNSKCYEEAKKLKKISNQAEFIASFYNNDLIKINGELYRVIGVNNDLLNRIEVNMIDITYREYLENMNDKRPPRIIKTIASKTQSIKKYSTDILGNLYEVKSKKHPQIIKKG

SpyCas9, sequence (Q99ZW2 whole entry): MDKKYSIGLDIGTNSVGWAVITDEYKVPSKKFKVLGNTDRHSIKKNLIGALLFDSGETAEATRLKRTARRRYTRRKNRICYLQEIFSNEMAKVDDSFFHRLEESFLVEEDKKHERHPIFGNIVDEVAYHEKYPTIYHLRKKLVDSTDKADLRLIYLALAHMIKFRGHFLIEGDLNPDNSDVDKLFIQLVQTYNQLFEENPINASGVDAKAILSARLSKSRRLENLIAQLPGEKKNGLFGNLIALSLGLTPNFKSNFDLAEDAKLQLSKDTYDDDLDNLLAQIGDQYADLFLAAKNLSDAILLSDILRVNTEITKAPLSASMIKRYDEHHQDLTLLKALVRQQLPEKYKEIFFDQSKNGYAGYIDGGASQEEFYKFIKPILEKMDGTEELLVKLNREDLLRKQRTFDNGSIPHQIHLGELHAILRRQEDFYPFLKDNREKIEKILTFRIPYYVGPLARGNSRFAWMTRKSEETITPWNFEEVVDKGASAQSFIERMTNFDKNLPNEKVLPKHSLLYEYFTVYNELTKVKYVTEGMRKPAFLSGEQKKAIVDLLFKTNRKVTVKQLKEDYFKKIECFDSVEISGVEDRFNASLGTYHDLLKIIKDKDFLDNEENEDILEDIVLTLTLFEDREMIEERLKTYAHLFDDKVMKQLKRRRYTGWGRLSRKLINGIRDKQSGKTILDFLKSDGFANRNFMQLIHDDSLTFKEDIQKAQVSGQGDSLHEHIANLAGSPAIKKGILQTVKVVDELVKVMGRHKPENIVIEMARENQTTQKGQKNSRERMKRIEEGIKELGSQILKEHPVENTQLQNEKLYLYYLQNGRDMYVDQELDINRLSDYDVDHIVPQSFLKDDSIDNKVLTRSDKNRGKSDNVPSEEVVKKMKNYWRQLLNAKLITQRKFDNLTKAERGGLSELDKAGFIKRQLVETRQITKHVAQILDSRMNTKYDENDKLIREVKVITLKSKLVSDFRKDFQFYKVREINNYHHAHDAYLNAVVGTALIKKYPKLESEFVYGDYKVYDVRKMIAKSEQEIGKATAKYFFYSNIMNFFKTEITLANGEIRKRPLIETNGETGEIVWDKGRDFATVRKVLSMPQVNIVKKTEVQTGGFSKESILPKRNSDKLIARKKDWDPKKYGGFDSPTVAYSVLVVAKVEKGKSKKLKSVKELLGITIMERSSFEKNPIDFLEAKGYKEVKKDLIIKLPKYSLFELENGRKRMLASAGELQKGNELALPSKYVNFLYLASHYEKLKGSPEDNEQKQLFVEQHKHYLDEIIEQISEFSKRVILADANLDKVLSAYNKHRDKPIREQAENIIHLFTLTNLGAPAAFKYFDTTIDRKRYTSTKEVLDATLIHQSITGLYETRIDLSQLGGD

B1: S. pyogenes sgRNA (structured_RNA)
RNA: GUGAAAGUUAAUCGAACUGUGUUUUAGAGCUAGAAAUAGCAAGUUAAAAUAAGGCUAGUCCGUUAUCAACUUGAAAAAGUGGCACCGAGUCGGUGCUUUU
B1 showed a Kd (SpyCas9) of 0.29 ± 0.08 nM.

B2: S. aureus sgRNA (structured_RNA)
RNA: GUGAAAGUUAAUCGAACUGUGUUUUAGUACUCUGGAAACAGAAUCUACUAAAACAAGGCAAAAUGCCGUGUUUAUCUCGUCAACUUGUUGGCGAGAU
Binder B2 has a Kd (SauCas9) of 3.4 nM.

From paper PMC6298560, “Staphylococcus aureus Cas9 is a multiple-turnover enzyme”
